Results from US20130064834A1 (published 2013).

Key:
Human PCSK9-myc-myc-his = biological target: T1, Human PCSK9-myc-myc-his (human, UniProt Q8NBP7 31-692); experiment: SPR, mAb captured on anti-hFc, 37C
T1 construct: also called hPCSK9-mmh; hPCSK9

hPCSK9(D374Y)-mmh = biological target: T2, hPCSK9(D374Y)-mmh (human, UniProt Q8NBP7 31-692); experiment: SPR, mAb captured on anti-hFc, 37C
T2 construct: also called hPCSK(D374Y)-mmh

[1] = biological target: T3, human PCSK7, myc-myc-his tagged (human, UniProt Q16549 142-667, limits assumed); experiment: SPR, mAb captured on anti-hFc, 25C
T3 construct: also called hPCSK7-mmh; hPCSK7
T3 sequence: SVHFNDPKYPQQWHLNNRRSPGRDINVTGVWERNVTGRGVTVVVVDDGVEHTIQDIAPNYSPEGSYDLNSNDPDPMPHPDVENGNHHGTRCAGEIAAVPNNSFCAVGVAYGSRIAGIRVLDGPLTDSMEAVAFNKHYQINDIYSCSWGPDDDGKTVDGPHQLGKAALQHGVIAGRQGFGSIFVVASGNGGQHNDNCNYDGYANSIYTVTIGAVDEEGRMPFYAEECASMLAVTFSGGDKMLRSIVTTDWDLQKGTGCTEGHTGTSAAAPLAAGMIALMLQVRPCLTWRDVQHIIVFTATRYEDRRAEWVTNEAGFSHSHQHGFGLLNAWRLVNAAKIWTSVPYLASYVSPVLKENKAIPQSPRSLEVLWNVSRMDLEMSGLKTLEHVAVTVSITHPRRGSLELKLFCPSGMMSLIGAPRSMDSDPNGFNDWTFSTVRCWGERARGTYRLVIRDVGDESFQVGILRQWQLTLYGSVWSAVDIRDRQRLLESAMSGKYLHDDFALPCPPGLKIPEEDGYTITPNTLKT

[2] = biological target: T4, human PCSK1, myc-myc-his tagged (human, UniProt P29120 111-753, limits assumed); experiment: SPR, mAb captured on anti-hFc, 25C
T4 construct: also called hPCSK1-mmh; hPCSK1
T4 sequence: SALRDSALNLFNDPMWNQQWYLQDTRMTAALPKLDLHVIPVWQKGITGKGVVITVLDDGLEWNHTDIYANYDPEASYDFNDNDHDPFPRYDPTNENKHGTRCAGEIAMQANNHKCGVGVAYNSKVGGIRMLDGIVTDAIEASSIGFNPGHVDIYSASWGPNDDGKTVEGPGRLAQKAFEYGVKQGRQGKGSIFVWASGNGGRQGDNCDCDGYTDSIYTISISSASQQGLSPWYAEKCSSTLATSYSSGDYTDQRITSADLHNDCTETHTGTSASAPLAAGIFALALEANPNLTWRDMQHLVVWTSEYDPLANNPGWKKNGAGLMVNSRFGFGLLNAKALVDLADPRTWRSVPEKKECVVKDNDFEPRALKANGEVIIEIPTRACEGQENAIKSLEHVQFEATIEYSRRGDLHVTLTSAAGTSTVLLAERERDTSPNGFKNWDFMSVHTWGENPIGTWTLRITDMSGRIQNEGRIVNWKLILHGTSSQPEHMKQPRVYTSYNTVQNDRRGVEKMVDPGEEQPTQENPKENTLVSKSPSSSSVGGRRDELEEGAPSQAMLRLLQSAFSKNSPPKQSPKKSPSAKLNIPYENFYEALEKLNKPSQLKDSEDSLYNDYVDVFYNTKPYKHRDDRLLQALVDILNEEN

Kd (Human PCSK9-myc-myc-his): 2.4 nM
T1/2 (Human PCSK9-myc-myc-his): 22 min
Kd (hPCSK9(D374Y)-mmh): 2.2 nM
T1/2 (hPCSK9(D374Y)-mmh): 14 min
binding result [1]: no binding (tested: 100 nM)
binding result [2]: no binding (tested: 100 nM)
B1: H1M300N (antibody, V domains shown)
VH: EMQLVESGGGLVQPGGSLRLSCAASGFTFSSHWMKWVRQAPGKGLEWVANINQDGSEKYYVDSVKGRFTISRDNAKNSLFLQMNSLRAEDTAVYYCARDIVLMVYDMDYYYYGMDVWGQGTTVTVSS
VL: not shown
notes: Fully human version made in CHO cells
